Data set [1] concerns the target Flag-tagged Nodal precursor (mouse). In words: non-reducing SDS-PAGE with immunoblot. (In general: A western blot detects proteins with antibodies after separation by electrophoresis.)
Data set [2] concerns the molecule itself. In words: non-reducing SDS-PAGE with immunoblot.

One may read the stoichiometry N as the number of molecules, sites or subunits per partner or assembly. For the molecule “Flag-tagged Nodal precursor (natural protein)”, the stoichiometry N in data set [1] was 2.

B1: mature MycBMP4 (domain or fragment, mouse, UniProt P21275 293-408, looked up)
chain: SPKHHPQRSRKKNKNCRRHSLYVDFSDVGWNDWIVAPPGYQAFYCHGDCPFPLADHLNSTNHAIVQTLVNSVNSSIPKACCVPTELSAISMLYLDEYDKVVLKNYQEMVVEGCGCR
Regarding B1, the “stoichiometry N” value in data set [2] came to 2.

These data come from publication PMC2148113 (The Journal of Cell Biology, 1999).
